Laboratory results reported in PMC4522201.

Molecular target: CEP-HSA (2-(ω-carboxyethyl)pyrrole derivative of HSA) (human) (UniProt P02768)
Assay: SPR

Substance | Kd
CD36-Fc chimera (from UniProt P16671 1-472) (Fc fusion) | 6.53 nM
TLR2-Fc chimera (from UniProt O60603 21-588) (Fc fusion) | 11.8 nM
